Legend:
Assay type in all cases: cell-based
MC3T3-E1 cells = experiment: Differentiation of osteoblast progenitor culture mass in biogel (ALP/ACP assay, ALP staining); details: day 3 and day 7
Procedure: Osteoblasts progenitor cells, MC3TC-E1 were mixed with the biogel prepared in Example 6, in amounts of […], and 100 μL of each of the resulting mixture solution was gelled using a casting gel, to consequently yield three-dimensional culture mass, each containing 7×10^3 and 1×10^5 cells. Then, the three-dimensional culture mass were three-dimensionally cultured for 7 days in osteoblast media, which were formed by adding 10 mM of β-glycerophosphate (Sigma Aldrich, USA), 50 μg/ml of ascorbic acid (Sigma Aldrich, USA), and 10 nM of dexamethasone (Sigma Aldrich, USA) to growth media supplemented with α-MEM (Welgene, Korea) supplemented with 10% fetal bovine serum (FBS) (Gibco, USA), 100 U/ml of penicillin (Welgene, Korea), and […] of streptomycin (Welgene, Korea). Thereafter, on day 3 and day 7 of culturing, differences in the expression level of ALP protein, which is an early osteoblast differentiation factor, were examined at different cell densities of culture mass, using ALP assay kit (Abcam, ab83369) and ALP staining kit (Sigma, P5869). […]
(§1) Subsequently, on day 3 and day 7 of culturing, the MC3T3-E1 cells were measured for the osteoclast differentiation marker ACP, and the RAW264.7 cells were measured for the osteoblast differentiation marker ALP, to determine the influence of their respective differentiation markers on each other.

RAW264.7 cells = experiment: Differentiation of osteoclast progenitor culture mass in biogel (ACP/ALP assay, TRAP staining); details: RAW264.7 in biogel, 100 ng/ml Rankl, compared to control group (GM)
Procedure: 8-2. Culturing of Osteoclasts Osteoclast progenitor cells RAW264.7 were mixed with the biogel prepared in Example 6, in amounts of 5×10^5 cells/ml, 7×10^5 cells/ml, 1×10^6 cells/ml, and 3×10^6 cells/ml, and 100 μL of each of the resulting mixture liquids was gelled using a casting gel, to consequently yield three-dimensional culture mass, each containing 5×10^4 cells, 7×10^4 cells, 1×10^5 cells, 3×10^5 cells, and […]. Then, the three-dimensional culture mass were three-dimensionally cultured for 7 days in osteoclast media, which were formed by adding 100 ng/ml of Rankl to growth media containing α-MEM (Welgene, Korea) supplemented with 10% fetal bovine serum (FBS) (Gibco, USA), 100 U/ml of penicillin (Welgene, Korea), and […] of streptomycin (Welgene, Korea). Then, using ACP assay kit (Abcam, ab83367) and TRAP staining kit (Sigma, 181A), differences in the expression level of osteoclast differentiation factor were examined at different cell numbers. […]
as §1

[1] = tested on: MC3T3-E1 cells and RAW264.7 cells co-culture; experiment: Differentiation in 3D co-culture mass in biogel (ALP and ACP assay, ALP and TRAP staining)
Procedure: In detail, after dissolving 0.5% agarose in 300 mM CaCl2 solution, the Phenol Red solution was added in an amount of 5 mg/L to produce a casting gel solution. Then, after introducing 5-5.5 ml of the casting gel solution into a casting tray, a three-dimensional semi-spherical casting mold was inserted in the casting tray, and after completely solidifying the casting gel solution, the casting mold was carefully removed to produce a three-dimensional semi-spherical casting gel mold. The biogel, 1×10^5 cells/ml of osteoblast progenitor cells MC3T3-E1, and 5×10^4 cells/ml of osteoclast progenitor cells RAW264.7, were introduced into the casting gel mold and subjected to gelation to yield a three-dimensional co-culture mass. Then, the co-culture mass was cultured in the following media: media treated only with an osteoblast differentiation induction factor (+3F); media only treated with an osteoclast differentiation induction factor (+R); and media treated with both osteoblast differentiation induction factor and osteoclast differentiation induction factor (+3F+R). Then, osteoblast differentiation profiles were characterized through ALP expression levels.
9-2. Creating the bone resorption environment through co-culture of osteoblasts and osteoclasts Under the same conditions as shown in Example 9-1, osteoclast differentiation profiles were characterized by […].

B1: Rankl (protein, UniProt O14788 140-317, looked up)
Tumor necrosis factor ligand …: IRAEKAMVDGSWLDLAKRSKLEAQPFAHLTINATDIPSGSHKVSLSSWYHDRGWAKISNMTFSNGKLIVNQDGFYYLYANICFRHHETSGDLATEYLQLMVYVTKTSIKIPSSHTLMKGGSTKYWSGNSEFHFYSINVGGFFKLRSGEEISIEVSNPSLLDPDQDATYFGAFKVRDID
notes: 100 ng/ml of Rankl added to growth media
expression of osteoblast differentiation marker ALP (MC3T3-E1 cells): little expression | expression of osteoclast differentiation marker ACP (MC3T3-E1 cells): little expression | expression of osteoclast differentiation factor ACP (RAW264.7 cells): increased | ALP expression (osteoblast differentiation) ([1]; combined treatment compared with osteoblast factor only): trace amount | ACP expression (osteoclast differentiation) ([1]; day 3 and day 7, combined treatment compared with osteoclast factor only): increased

From US12252711B2, “Osteoporosis model comprising calcium phosphate hydrogel composition and use thereof” (MEDIFAB CO., LTD., priority 2019, dated 2025)
